Source: patent publication US20220298235A1 (AKESO BIOPHARMA, published 2022)

Legend:
[1] = molecular target: T1, human IL-23 (IL-23-His-Biotin) (human, UniProt Q9NPF7 20-189; P29460 23-328, biotin label, site not stated); experiment: FACS competition, IL23-His-Biotin (4 µg/mL mixed 1:1) on 293T-IL-12Rβ1&IL-23R cells
T1 construct: Akesobio lot 20161209; His-tagged and biotinylated
T1 sequence (looked up) 1: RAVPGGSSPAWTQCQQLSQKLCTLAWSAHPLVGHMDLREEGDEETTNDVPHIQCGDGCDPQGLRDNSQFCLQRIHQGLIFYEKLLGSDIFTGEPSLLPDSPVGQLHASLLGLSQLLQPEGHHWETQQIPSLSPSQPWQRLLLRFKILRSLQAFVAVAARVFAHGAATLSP
T1 sequence (looked up) 2: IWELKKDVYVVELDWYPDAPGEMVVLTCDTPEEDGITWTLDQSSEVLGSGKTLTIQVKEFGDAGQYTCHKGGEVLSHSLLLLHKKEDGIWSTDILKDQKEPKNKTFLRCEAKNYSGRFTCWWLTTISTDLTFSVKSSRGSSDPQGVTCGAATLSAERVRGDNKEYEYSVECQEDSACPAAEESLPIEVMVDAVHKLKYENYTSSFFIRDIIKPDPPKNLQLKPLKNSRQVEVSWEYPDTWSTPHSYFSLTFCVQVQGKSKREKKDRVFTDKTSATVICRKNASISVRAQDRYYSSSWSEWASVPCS
Procedure: 200 μL of 1% PBSA was added into each sample, and the mixture was centrifuged at 1200 rpm for 5 min to discard the supernatant. According to experiment design, correspondingly diluted antibody (highest concentration of 60 μg/mL, 3-fold dilution, 8 concentrations in total) and human IL23-His-Biotin (Akeso Biopharma, Inc., Lot. No.: 20161209) (4 μg/mL) were mixed at a ratio of 1:1, and a blank control was set. The mixture of antibody and IL23-His-Biotin was incubated on ice for 30 min and then added to the cell precipitate at 100 μL/sample. The resulting mixture was well mixed and incubated on ice for 60 min. 200 μL of 1% PBSA was added, and the mixture was centrifuged at 1200 rpm for 5 min to discard the supernatant, and then washed twice. FITC Steptavidin (Biolegend, Cat. No.: 405202) was diluted at a ratio of 1:500 and added to each tube at 100 μL. The mixture was well mixed and incubated on ice for 40 min in the absence of light. 200 μL of 1% PBSA was added, and the mixture was centrifuged at 1200 rpm for 5 min to discard the supernatant, and then washed twice. 1% PBSA was added at 200 μL/tube, and the cells were resuspended and transferred to a flow cytometry tube for testing.

[2] = molecular target: T2, human p40-His (human, UniProt P29460 23-328); experiment: BLI (Fortebio), p40-His on HIS1K sensor, antibody 5-0.31 nM, 37 °C, 1:1 fit
T2 construct: Made by Akeso Biopharma; construct limits and tag not described; also called human IL-12/IL-23 p40 protein domain; human IL-12/IL-23 p40; not shown: His tag
T2 sequence (looked up): T1 sequence (looked up) 2
Procedure: The sample dilution buffer for H5L9, H5L10, H5L11, H5L12, H5L14, H8L15, Ab123FR1 and ustekinumab was PBS (0.02% Tween-20, 0.1% BSA, pH 7.4). p40-His was immobilized on a HIS1K (manufacturer: Fortebio, Cat. No.: 18-5120) sensor at a concentration of 1 μg/mL for 40 s. The sensor was equilibrated in a buffer for 60 s, and the p40-His immobilized on the sensor bound to the antibody at a concentration of 5-0.31 nM (two-fold dilution) for 120 s, and then the protein dissociated in the buffer for 300 s. The sensor was refreshed with 10 mM glycine solution (pH=1.5). The detection temperature was 37° C., the detection frequency was 0.3 Hz, and the sample plate shaking rate was 500 rpm. The data were analyzed by 1:1 model fitting to obtain affinity constants.

[3] = molecular target: T2, human p40-His; experiment: indirect ELISA, p40-His coat 0.25 µg/mL
Procedure: A microplate was coated with human p40-His (Akeso Biopharma, Inc.; gene of p40: GeneBank NM002187). After incubation at 4° C. for no less than 12 h, the plate was washed with PBST, patted dry and blocked with a solution of 1% BSA in PBS. After blocking was completed, the plate was washed with PBST and patted dry. The antibody diluted with PBST solution in gradient was added into the wells of the plate, and the antibody dilution gradient is detailed in Table 1. The plate containing the test antibody was incubated at 37° C. for 30 min and then washed with PBST and patted dry. […] TMB (Neogen, 308177) was added for color developing for 5 min in the absence of light, and then stop solution was added to terminate the chromogenic reaction. Then the plate was put into a plate reader immediately, and the OD value of each well in the plate was read at 450 nm. The data were analyzed by SoftMax Pro 6.2.1.
The binding EC₅₀ of antibody was calculated by curve fitting using antibody concentration as the abscissa and absorbance value as the ordinate, and the results are shown in Table 4 below.

[4] = molecular target: T3, Human IL12 (His Tag) (human, UniProt P29459 23-219; P29460 23-328); experiment: FACS competition, IL12-His (40 nM mixed 1:1) on 293T-IL-12Rβ1&IL-23R cells
T3 construct: Bought His-tagged heterodimer
T3 sequence (looked up) 1: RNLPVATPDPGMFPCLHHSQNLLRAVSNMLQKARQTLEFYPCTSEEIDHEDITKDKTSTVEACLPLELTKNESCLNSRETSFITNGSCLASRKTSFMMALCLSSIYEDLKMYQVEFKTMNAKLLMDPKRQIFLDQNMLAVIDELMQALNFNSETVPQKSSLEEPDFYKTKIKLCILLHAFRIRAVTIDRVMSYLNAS
T3 sequence (looked up) 2: T1 sequence (looked up) 2
Procedure: 200 μL of 1% PBSA was added into each sample, and the mixture was centrifuged at 1200 rpm for 5 min to discard the supernatant. According to experiment design, correspondingly diluted antibody (highest final concentration of 60 μg/mL, 3-fold dilution, 8 concentrations in total) and IL12-His (Sino Biological, Cat. No.: CT-050-H08H-20) (40 nM) were mixed at a ratio of 1:1, and a blank control was set. The mixture of antibody and IL12 was incubated on ice for 30 min and then added to the cell precipitate at 100 μL/sample. The resulting mixture was well mixed and incubated on ice for 60 min 200 μL of 1% PBSA was added, and the mixture was centrifuged at 1200 rpm for 5 min to discard the supernatant, and then washed twice. THETM His tag antibody (FITC) (Genscript, Cat. No.: A01620) was diluted at a ratio of 1:500 and added to each tube at 100 μL. The mixture was well mixed and incubated on ice for 40 min in the absence of light. 200 μL of 1% PBSA was added, and the mixture was centrifuged at 1200 rpm for 5 min to discard the supernatant, and then washed twice. 1% PBSA was added at 200 μL/tube, and the cells were resuspended and transferred to a flow cytometry tube for testing.

EC50 [1]: 0.894 mg/L
Kd [2]: 0.0609 nM
S E (kon) [2]: 213000 M⁻¹ s⁻¹
S E(kdis) [2]: 0.000137 s⁻¹
koff [2]: 0.00018 s⁻¹
kon [2]: 2.95e+06 M⁻¹ s⁻¹
EC50 [3]: 0.059 nM
EC50 [4]: 1.46 mg/L
B1: H8L15 (antibody, human IgG1, kappa, V domains shown)
VH: EVQLVQSGAEVKKPGESLKISCQSSGYTFTSYWIGWVRQMPGQGLEWIGIMSPVDSDIRYNPMFRGQVTMSVDKSSSTAYLQWSSLKASDTAMYYCARRRPGQGYFDFWGQGTMVTVSS
VL: EIVLTQSPATLSASPGERATISCRASQSVGTWVAWYQQKPGQAPRSLIYAASNLQSGIPARFSGSGSGTDFTLTISSLEPEDFAVYYCQQYNIYPYTFGQGTRLEIKR
notes: human IgG1 (P01857) / kappa (P01834) constant regions; also called anti-human IL-12/IL-23 p40 antibody H8L15; H8L15H1L1
